Each block holds one substance with its values, some of them ahead of it.
Columns and labels:
Assay in all cases: cell-based or functional assay
[1] = molecular target: Jagged-1 expressed on mouse GM-BMDCs (mouse) (UniProt Q9QXX0)
[2] = molecular target: Notch 3 expressed on mouse T-cells (Tregs) (mouse) (UniProt Q61982)
[3] = molecular target: OX40L expressed on mouse GM-BMDCs (mouse) (UniProt P43488)
Sequence of UniProt P43488 (P43488 whole entry): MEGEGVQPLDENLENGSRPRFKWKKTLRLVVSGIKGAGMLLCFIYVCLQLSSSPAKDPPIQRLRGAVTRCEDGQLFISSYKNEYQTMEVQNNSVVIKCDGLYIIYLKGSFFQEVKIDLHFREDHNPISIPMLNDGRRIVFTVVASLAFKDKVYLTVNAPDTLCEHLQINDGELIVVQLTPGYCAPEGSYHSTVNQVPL

Sequence of UniProt Q9QXX0 (Q9QXX0 34-1218): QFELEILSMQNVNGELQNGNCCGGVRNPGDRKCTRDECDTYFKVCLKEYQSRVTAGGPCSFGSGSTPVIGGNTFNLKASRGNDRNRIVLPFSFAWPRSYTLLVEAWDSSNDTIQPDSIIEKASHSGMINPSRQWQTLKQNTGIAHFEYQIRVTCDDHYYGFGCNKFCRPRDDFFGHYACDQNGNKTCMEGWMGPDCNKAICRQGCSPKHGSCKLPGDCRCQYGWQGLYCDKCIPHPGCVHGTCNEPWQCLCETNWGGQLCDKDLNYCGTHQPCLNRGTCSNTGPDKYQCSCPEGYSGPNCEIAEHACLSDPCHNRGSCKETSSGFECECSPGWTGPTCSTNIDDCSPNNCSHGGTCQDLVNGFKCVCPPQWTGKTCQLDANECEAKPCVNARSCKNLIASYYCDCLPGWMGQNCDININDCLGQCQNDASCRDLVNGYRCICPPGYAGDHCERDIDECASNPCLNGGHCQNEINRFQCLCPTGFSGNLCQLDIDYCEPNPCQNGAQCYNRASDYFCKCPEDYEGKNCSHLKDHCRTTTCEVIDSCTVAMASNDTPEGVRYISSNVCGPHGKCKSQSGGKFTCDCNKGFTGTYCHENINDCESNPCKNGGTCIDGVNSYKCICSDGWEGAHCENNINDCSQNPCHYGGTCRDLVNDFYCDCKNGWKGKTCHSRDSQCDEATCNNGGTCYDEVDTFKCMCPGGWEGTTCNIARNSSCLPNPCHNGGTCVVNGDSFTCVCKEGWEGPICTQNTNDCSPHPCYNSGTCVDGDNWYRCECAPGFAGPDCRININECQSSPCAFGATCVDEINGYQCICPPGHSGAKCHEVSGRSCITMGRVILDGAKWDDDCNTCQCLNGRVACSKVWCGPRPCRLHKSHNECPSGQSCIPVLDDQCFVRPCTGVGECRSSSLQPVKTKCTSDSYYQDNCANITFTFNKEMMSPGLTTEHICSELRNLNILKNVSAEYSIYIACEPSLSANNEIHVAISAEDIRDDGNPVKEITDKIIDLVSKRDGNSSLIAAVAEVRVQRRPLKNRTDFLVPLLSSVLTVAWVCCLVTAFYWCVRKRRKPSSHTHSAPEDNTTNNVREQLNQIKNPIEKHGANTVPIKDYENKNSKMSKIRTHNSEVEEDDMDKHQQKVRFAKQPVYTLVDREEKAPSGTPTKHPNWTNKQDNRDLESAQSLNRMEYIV
Sequence of UniProt Q61982 (Q61982 40-2318): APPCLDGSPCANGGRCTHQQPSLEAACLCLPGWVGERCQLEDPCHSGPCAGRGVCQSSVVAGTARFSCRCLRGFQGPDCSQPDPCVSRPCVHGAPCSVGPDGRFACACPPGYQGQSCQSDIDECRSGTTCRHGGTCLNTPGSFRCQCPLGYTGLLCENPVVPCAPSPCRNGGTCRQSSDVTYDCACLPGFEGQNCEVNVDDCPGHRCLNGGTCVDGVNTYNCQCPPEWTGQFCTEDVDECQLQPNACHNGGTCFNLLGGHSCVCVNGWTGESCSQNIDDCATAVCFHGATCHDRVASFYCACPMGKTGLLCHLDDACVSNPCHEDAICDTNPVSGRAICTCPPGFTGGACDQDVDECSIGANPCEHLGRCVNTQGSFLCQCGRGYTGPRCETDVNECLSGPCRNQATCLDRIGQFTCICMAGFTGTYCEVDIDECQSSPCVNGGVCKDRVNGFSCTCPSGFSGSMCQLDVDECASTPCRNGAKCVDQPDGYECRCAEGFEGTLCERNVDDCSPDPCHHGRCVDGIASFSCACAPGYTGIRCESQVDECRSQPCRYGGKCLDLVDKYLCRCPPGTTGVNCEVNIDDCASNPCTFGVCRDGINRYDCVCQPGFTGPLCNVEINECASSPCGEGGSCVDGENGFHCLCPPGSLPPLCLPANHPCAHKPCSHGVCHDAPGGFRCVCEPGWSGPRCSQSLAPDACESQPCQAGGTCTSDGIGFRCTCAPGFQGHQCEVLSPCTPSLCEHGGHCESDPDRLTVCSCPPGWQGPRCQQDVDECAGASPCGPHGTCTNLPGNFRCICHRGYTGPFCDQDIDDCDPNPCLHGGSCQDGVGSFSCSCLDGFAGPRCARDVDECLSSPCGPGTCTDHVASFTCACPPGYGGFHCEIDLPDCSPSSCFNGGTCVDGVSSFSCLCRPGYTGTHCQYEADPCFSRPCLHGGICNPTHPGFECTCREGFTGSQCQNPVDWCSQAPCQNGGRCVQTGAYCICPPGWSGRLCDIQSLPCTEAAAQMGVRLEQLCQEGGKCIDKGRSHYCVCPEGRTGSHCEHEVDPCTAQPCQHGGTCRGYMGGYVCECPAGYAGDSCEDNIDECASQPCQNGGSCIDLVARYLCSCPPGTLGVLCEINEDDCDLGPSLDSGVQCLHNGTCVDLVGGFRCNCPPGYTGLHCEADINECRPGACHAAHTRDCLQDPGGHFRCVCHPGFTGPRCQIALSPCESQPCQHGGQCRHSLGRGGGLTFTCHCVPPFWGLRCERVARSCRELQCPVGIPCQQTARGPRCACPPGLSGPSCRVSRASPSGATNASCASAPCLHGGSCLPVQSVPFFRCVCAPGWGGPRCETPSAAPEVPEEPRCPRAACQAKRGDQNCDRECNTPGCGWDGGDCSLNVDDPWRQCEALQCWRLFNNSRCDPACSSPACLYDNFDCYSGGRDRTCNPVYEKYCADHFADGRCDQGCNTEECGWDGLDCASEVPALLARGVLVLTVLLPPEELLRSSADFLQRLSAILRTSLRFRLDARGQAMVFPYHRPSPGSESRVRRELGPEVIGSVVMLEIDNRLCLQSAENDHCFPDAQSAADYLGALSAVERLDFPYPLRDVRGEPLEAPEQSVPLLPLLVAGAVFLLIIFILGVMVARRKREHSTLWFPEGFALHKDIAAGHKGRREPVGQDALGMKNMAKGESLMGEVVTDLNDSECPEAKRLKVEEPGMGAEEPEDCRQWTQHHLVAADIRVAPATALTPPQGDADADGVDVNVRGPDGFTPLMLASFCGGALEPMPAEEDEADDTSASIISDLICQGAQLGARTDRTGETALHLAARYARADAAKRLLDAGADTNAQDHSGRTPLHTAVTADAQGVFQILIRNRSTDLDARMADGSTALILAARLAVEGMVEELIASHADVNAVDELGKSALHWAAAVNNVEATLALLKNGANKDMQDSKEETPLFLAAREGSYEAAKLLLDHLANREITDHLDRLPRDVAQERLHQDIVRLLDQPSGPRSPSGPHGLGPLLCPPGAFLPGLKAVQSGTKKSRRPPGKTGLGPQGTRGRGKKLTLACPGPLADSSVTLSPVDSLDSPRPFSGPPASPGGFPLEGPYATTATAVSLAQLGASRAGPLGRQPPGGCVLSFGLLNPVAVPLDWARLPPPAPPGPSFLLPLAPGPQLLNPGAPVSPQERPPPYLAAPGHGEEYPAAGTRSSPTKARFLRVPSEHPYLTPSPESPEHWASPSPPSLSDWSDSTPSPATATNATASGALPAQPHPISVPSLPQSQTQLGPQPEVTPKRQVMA

Treg proliferation (%) in GM-BMDC/CD4+ T-cell co-culture with anti-Jagged-1-Hi (13.0% without antibody) [1]: 5.3%
Substance: Blocking antibody to Jagged-1 (AF599, R&D systems)

Proliferating Foxp3+ T cells positive for Notch 3 NICD in GM-BMDC/T-cell co-cultures (FACS) [2]: 97%
Substance: Jagged-1 expressed on mouse GM-BMDCs (from UniProt Q9QXX0 34-1218) (ligand)

Treg proliferation (%) in GM-BMDC/CD4+ T-cell co-culture with anti-OX40L-Hi (13.0% without antibody) [3]: 3.7%
Substance: Blocking antibody to OX40L (AF1236, R&D systems)
